Test results from US20090246756A1, “Thermostable polypeptide having polynucleotide kinase activity and/or phosphatase activity” (Prokaria Ehe, priority 2004, published 2009).
“And” between values parts separate entries of the source, which are not always exact repeats. Equal values may be shown once. “Also recorded” adds a separate entry of the source.

How the values were obtained:
[1] = tested on: partial mircococcal nuclease digested calf thymus DNA or DNA/RNA oligomers; experiment: 5′ kinase standard PNK assay (conversion of γ-32P-ATP); format: biochemical; conditions: for increase in 5′ kinase activity by PEG6000: 5-10% PEG6000; for 5′ kinase activity with Mn^2+ compared to Mg^2+: divalent cation essential
Method: The 5′-kinase activity may be determined by an appropriate assay such as an assay developed for T4 PNK that measures conversion of ATP labelled with radioactive gamma-phosphate group (Richardson, C. C. (1965) Proc Natl Acad Sci U.S.A. 54, 158-165). The standard assay may be modified according to the requirement of a specific PNK. For example, for RM378 PNK the typical reaction conditions are 50 mM MOPS buffer pH 8.5, 1 mM DTT, 10 mM MgCl2, 25 μg/ml BSA, 1 mM spermidine and 5% PEG6000, 100 μM ATP (mixture of normal and γ-32P-ATP) and 0.5 mg/ml partial micrococcal nuclease digested calf thymus DNA or 50-100 μM DNA/RNA oligomers, and 0.0001-0.001 mg/ml PNK enzyme. The reaction mixture is then incubated at 70° C. for 15-30 minutes.
(§1) The standard PNK assay developed by Richardsson (Richardson, C. C. (1965) Proc Natl Acad Sci USA 54, 158-165) that measures conversion of γ-32P-ATP, was used for characterization of the RM378 PNK with some minor modifications. Standard reaction conditions were: 50 mM MOPS buffer pH 8.5, 1 mM DTT, 10 mM MgCl2, 25 μg/ml BSA, 1 mM spermidine and 5% PEG6000, 100 μM ATP (mixture of normal and γ-32P-ATP) and 0.5 mg/ml partial mircococcal nuclease digested calf thymus DNA or 50-100 μM DNA/RNA oligomers, and 0.0001-0.001 mg/ml PNK enzyme, incubated at 70° C. for 15-30 minutes.

[2] = 5′ kinase reaction, ATP titration; format: biochemical; conditions: Lineweaver-Burk plot
Method: as §1
(§2) Titration curves for ATP, r(A20) and single stranded d(A20) oligomers were done to calculate Km values and find the maximum velocity of the 5′ kinase reaction. The results are shown for ATP in FIG. 4B and for, r(A20) and d(A20) in FIGS. 4C.

[3] = tested on: r(A20); experiment: 5′ kinase reaction, RNA oligomer titration and labelling; format: biochemical
Method: as §1, §2
(§3) To investigate the completeness of the 5′ kinase reaction, both r(A20) and d(A20) oligos at 20 μM concentration were labeled in a 10 μM ^32P labeled ATP mixture under optimal conditions. […] The RM378 PNK is therefore an excellent enzyme for nucleic acid labeling at elevated temperatures.

[4] = tested on: d(A20); experiment: 5′ kinase reaction, ssDNA oligomer titration and labelling; format: biochemical
Method: as §1, §2, §3

[5] = tested on: ssDNA oligomer; experiment: Effect of ADP on 5′ kinase, dephosphorylation and phosphate exchange reactions; format: biochemical; conditions: for effect of ADP on 5′ kinase activity: 5′ hydroxylated ssDNA, increasing ADP; for phosphate exchange reaction on 5′ phosphorylated oligomer: independent of ADP concentration, 0 to 1 mM ADP; for effect of ADP on dephosphorylation of 5′ phosphorylated ssDNA: only ADP and 32P-labeled oligomer, no ATP
Method: Effect of ADP was tested on three kind of reactions i) exchange reaction ii) 5′ kinase reaction and iii) dephosphosphorylation. This was done, by titrating different amounts of ADP to reaction mixtures containing i) 10 μM phosphorylated ssDNA oligo 10 μM γ-^32P-ATP, ii) 10 μM 5′ hydroxylated ssDNA oligomer with 10 μM γ-^32P-ATP, and iii) with 5′ ^32P-labeled ssDNA oligomer without ATP.
The effect of addition of ADP to 5′ kinase activity, dephosphorylation, and phosphate exchange was studied in controlled assay with 10:10 μM ATP and oligomer and by titrating the ADP concentration. […] On the other hand, when labelling an already phosphorylated oligomer, the exchange reaction was overall about 5-8% independent of the ADP concentration, from 0 to 1 mM ADP.

[6] = 3′ phosphohydrolase assay (phosphate release, Biomol Green) on 3′TMP; format: biochemical
Method: (§4) For example, the following assay can be used: in a potassium acetate buffer, pH 6.0, with 5 mM MnCl2, 1 mM DTT, and 10 mM KCl2, the enzyme is incubated (at 0.05 mg enzyme/ml) with substrate, such as 0.1-5 mM 3′-thymidine mono-phosphate (3′-TMP) or cyclic 2′-3′cyclic adenosine mono-phosphate (cAMP), for 30-60 minutes at suitable temperature, for example at 70-75° C. for RM378 kinase. The reaction is then quenched by adding 90 μL of Biomol Green reagent (Biomol Research Laboratories, Plymouth Meeting, Pa.) to 10 μL reaction. The release of phosphate is then measured at A 620 nm in a spectrophotometer and compared to a phosphate standard curve.
(§5) After determination of pH, cation and apparent temperature optimum, the standard phosphohydrolase assay was: Potassium acetate buffer pH 6.0, 5 mM MnCl2, 1 mM DTT, 10 mM KCl2, 0.1-5 mM CAMP and 0.05 mg/ml PNK. Reaction time was 30-60 minutes at 70-75° C. The reaction was quenched by adding 90 μL of Biomol Green reagent (Biomol Research Laboratories, Plymouth Meeting, Pa.) to 10 μL reaction. The release of phosphate was measured at A 620 nm in a Sunrise Absorbance Reader (Tecan Group Ltd, Maennedorf, Switzerland) and compare to a phosphate standard curve.
(§6) The characterization of the phosphohydrolase activity was done using two substrates: 3′-thymidine mono-phosphate (3′TMP) and cyclic 2′-3′cyclic adenosine mono-phosphate (cAMP). Determination of pH optimum was done with MOPS and potassium acetate buffers using 0.1 mM CAMP and 0.05 mg/ml PNK, apparent T optimum was also done under the standard condition by assaying at different temperatures. Protein concentration curve was done with CAMP at pH 6 in K-acetate buffer and different amount of PNK. Substrate concentration curves were done for CAMP and 3′TMP, under the standard conditions using different amount of substrates.
Comparison was done between RM378 and T4 PNK using CAMP, 3′TMP and d(A15)—PO4^− oligomer as substrates, all in 0.1 mM concentration with 20 units of the enzymes in 20 μL reaction volumes using potassium acetate buffer pH 6 with both Mg^2+ and Mn^2+ as the divalent cation. […]

[7] = tested on: d(A15)—PO4^− oligomer; experiment: 3′ phosphohydrolase comparison of RM378 and T4 PNK on 3′ phosphorylated oligomer; format: biochemical; conditions: 0.1 mM substrate, 20 units enzyme, pH 6, 2 hours, 37° C. (T4) / 70° C. (RM378)
Method: (§7) Comparison was done between RM378 and T4 PNK using CAMP, 3′TMP and d(A15)—PO4^− oligomer as substrates, all in 0.1 mM concentration with 20 units of the enzymes in 20 μL reaction volumes using potassium acetate buffer pH 6 with both Mg^2+ and Mn^2+ as the divalent cation. The reactions were carried out for 2 hours at 37° C. and 70° C. for T4 and RM378 PNK, respectively.

[8] = tested on: partial mircococcal nuclease digested calf thymus DNA or DNA/RNA oligomers; experiment: 5′ kinase standard PNK assay (conversion of γ-32P-ATP); format: biochemical; conditions: standard assay at different temperatures for one hour
[9] = 3′ phosphohydrolase assay (phosphate release, Biomol Green) on CAMP; conditions: for 3′ phosphohydrolase activity on CAMP, enzyme comparison: 20 units enzyme, pH 6, 2 hours, 37° C. (T4) / 70° C. (RM378)
Method: as §4, §5, §6, §7

B1: RM378 PNK: novel thermostable polynucleotide kinase (5′-kinase and 3′-phosphatase activity) from the thermophilic bacteriophage RM378, SEQ ID NO: 2 (protein)
chain: MPNFITNIRNSRFKEVLTEMYHCHHESEYHLEGNVLNHTLMVLQVVDKITADHREQTNLSLTALLHDSGKPYTRVVERGRVMFPGHEGVSTYIAPLLLCEVLRDSLITPKDAIQILYGVNYHMLHWKNPNLFMRLFTEMVNYTCLYNFLKKFNQCDLKGRVSTKPQKQEFPVIHYFENTPIGTVERHVYFMIGVPGSGKSTFLQKVGEGAIVSRDEIMMEYAAEIGITGDYNTVFREIHNNPMHKTKVNNRYMNAFRKAVEENEKVFVDATNMSYKSRRRFYNALRRDIAETVGYHYIVMLPDYFTCIERAENREGKSISREVVTDIARSLLLPCREHPNSIDTTIYMSDGHDEHVLRVAW
modifications: Bacteriophage RM378; HDmotif (66)..(67) HD motif is characteristic of HD phophohydrolase family of enzymes
In the case of B1, the “effect of spermidine on 5′ kinase activity” value [1] is reported as “limited”, the “increase in 5′ kinase activity by PEG6000” value [1] is reported as “multi-fold” and the “increase in 5′ kinase activity by PEG6000” value ([1]; listed as PNK) is reported as 3-4 fold and 4 fold. The “Mg^2+ concentration at which maximum 5′ kinase activity was reached” value ([1]; Mg^2+) was 100 µM, the “Mn^2+ concentration at which maximum 5′ kinase activity was reached” value ([1]; Mn^2+) was 10 µM and the “effect of Mn^2+ concentration over 100 μM on 5′ kinase reaction” value ([1]; Mn^2+ over 100 μM) was “severely inhibited the reaction”. For the same molecule, the “effect of PEG6000 at higher concentrations on 5′ kinase reaction” value ([1]; PEG6000 above 5-10%) was “inhibited the 5′ kinase reaction at higher concentrations”, the “effect of NaCl and KCl on PNK activity” value ([1]; concentrations higher than 10 mM) was “steady decrease in activity” and the “5′ kinase activity with Mn^2+ compared to Mg^2+” value [1] was “both Mg2+ and Mn2+ work equally well”. The “5′ kinase activity with Mn^2+ compared to Mg^2+” value ([1]; listed as PNK) was “Activity was similar for Mn^2+ and Mg^2+”, the Km [2] was 20 µM and the “completeness of 5′ kinase labelling reaction, RNA” value ([3]; 20 μM r(A20), 10 μM 32P-labeled ATP, 70° C., 30 min) was “the ATP was depleted; also recorded: completely depleted the ATP when using 5 U per reaction”. The “Vmax of 5′ kinase reaction on r(A20)” value ([3]; Example 2) was 160 μmolmg^−1h^−1, the “Vmax of 5′ kinase activity on RNA” value ([3]; FIG. 6C legend) was 220 µmol/h/mg and the Km ([3]; r(A20)) was ~1.5 µM and 1.3 µM. The “completeness of 5′ kinase labelling reaction, DNA” value ([4]; 20 μM d(A20), 10 μM 32P-labeled ATP, 70° C., 30 min) was “the ATP was depleted; also recorded: completely depleted the ATP when using 5 U per reaction”, the “Vmax of 5′ kinase reaction on d(A20)” value ([4]; Example 2) was 220 μmolmg^−1h^−1 and the “Vmax of 5′ kinase activity on DNA” value ([4]; FIG. 6C legend) was 160 µmol/h/mg. For the same molecule, the “5′ kinase activity on ssDNA compared to RNA” value ([4]; d(A20) versus r(A20)) was “somewhat better activity on ssDNA when compared to RNA”, the Km ([4]; single stranded d(A20), read-out: Km for DNA, 5′ kinase reaction) was ~1.3 µM and 1.5 µM and the “effect of ADP on 5′ kinase activity” value [5] was “inhibited as the concentration of ADP increased”. The “effect of ADP on 5′ kinase activity” value ([5]; listed as PNK) was “decreased with increasing ADP concentration”, the “ADP concentration giving complete inhibition of 5′ kinase activity” value ([5]; 10:10 μM ATP and oligomer) was 50 µM and the “phosphate exchange reaction on 5′ phosphorylated oligomer” value [5] was 3-8%. The “phosphate exchange reaction on 5′ phosphorylated oligomer” value ([5]; listed as PNK) was 5-8%, the “effect of ADP on dephosphorylation of 5′ phosphorylated ssDNA” value [5] was “The dephosphorylation increased as the ADP concentration increased” and the “effect of ADP on dephosphorylation of 5′ phosphorylated ssDNA” value ([5]; listed as PNK) was “the level of dephosphorylation increased as the ADP concentration was increased”. For the same molecule, the “3′ phosphohydrolase activity on 3′TMP, enzyme comparison” value ([6]; 0.1 mM substrate, 20 units enzyme, pH 6, 2 hours, 37° C. (T4) / 70° C. (RM378)) was “some activity on 3′TMP”, the “Vmax of 3′ phosphohydrolase reaction on 3′TMP” value ([6]; standard conditions, Mn2+) was 1.5 μmolmg^−1h^−1 and the Km ([6]; standard conditions, Mn2+, read-out: Km for 3TMP, 3′ phosphohydrolase reaction) was 60 µM. The “3′ phosphohydrolase activity on d(A15)-3′PO4− oligomer, enzyme comparison” value [7] was “no detectable activity on the oligomer”, the “3′ phosphohydrolase activity on d(A15)-3′PO4− oligomer, enzyme comparison” value ([7]; listed as RM378) was “no activity on the oligomer” and the “apparent temperature optimum of 5′ kinase activity” value [8] was 65-70 °C. For the same molecule, the “pH range with >40% 3′ phosphohydrolase activity” value [9] was 5.5-7.0 pH, the “temperature range with good (>50%) 3′ phosphohydrolase activity” value [9] was 65-80 °C and the “3′ phosphohydrolase activity on CAMP, enzyme comparison” value ([9]; 0.1 mM substrate) was “much better activity on the CAMP versus 3′-TMP”. For the same molecule, the “3′ phosphohydrolase activity on CAMP, enzyme comparison” value ([9]; 0.1 mM substrate, listed as RM378) was “high activity on CAMP”, the “higher 3′ phosphohydrolase activity with Mn^2+ than Mg^2+” value ([9]; CAMP as substrate, 1 mM cation) was 5-10 fold and the “3′ phosphohydrolase activity in presence of Mg2+, enzyme comparison” value ([9]; Mg2+ as cation, 0.1 mM substrate) was “little activity in presence of Mg2+”. For the same molecule, the “apparent temperature optimum of 3′ phosphohydrolase activity” value ([9]; measured for one hour) was 75 °C, the “pH optimum of 3′ phosphohydrolase activity” value ([9]; potassium acetate pH 4-6 and MOPS pH 6-9, 0.1 mM CAMP, 0.05 mg/ml PNK) was roughly 6 pH and the Km ([9]; read-out: Km for CAMP, 3′ phosphohydrolase reaction, standard conditions, Mn2+) was 700 µM. For the same molecule, the “Vmax of 3′ phosphohydrolase reaction on CAMP” value ([9]; standard conditions, Mn2+) was 13.5 μmolmg^−1h^−1 and the “3′ phosphohydrolase activity on CAMP relative to 3′TMP” value ([9]; substrate titration, standard assay conditions with Mn2+) was “much more phosphohydrolase activity on CAMP compared to 3′TMP; also recorded: several-fold higher on CAMP than 3′TMP”.
